# Experimental data as given in patent publication US20220135694A1, “NOVEL CD40-BINDING ANTIBODIES” (LAVA THERAPEUTICS B.V., priority 2019, published 2022).
# B1: V19S76K-5C8: tag-less bispecific anti-CD40-anti-Vγ9Vδ2-TCR VHH, SEQ ID NO:23 (protein)
# VHH: QVQLQESGGGLVQAGGSLRLSCAASGRTFGRSAMGWFRQAPGKEREFVAAIGTRGGSTKYADSVKGRFTISTDNAKNTVYLQMDSLKPEDTAVYRCAVRGPGYPSAAIFQDEYHYWGQGTQVTVSSGGGGSEVQLVESGGGLVQAGGSLRLSCAASGRPFSNYAMGWFRQAPGKEREFVAAISWSGGSTSYADSVKGRFTISRDNAKNTVYLQMNSPKPEDTAIYYCAAQFSGADYGFGRLGIRGYEYDYWGQGTQVTVSS
# modifications: antibody sequence
# How the values were obtained:
# Vγ9Vδ2+ cells = target: T1, Vγ9Vδ2+ cells (Homo sapiens, UniProt A0JD36); test: Bispecific VHH binding to Vγ9Vδ2-T cell lines, flow cytometry, non-linear regression; details: FIGS. 6A and B, read-out: apparent Kd
# T1 construct: endogenous in cells; host or cells: healthy donor-derived, expanded Vγ9Vδ2-T cell lines
# T1 sequence (A0JD36 20-115): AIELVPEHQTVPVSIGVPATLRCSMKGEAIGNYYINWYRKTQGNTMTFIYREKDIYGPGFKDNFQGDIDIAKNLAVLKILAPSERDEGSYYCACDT
# Description: The CLL-derived cell line CII was grown in complete IMDM. Purified Vγ9Vδ2-T cell lines were generated as described previously (de Bruin et al. (2017), Oncoimmunology 7(1): e1375641). In short, Vδ2^+-T cells were isolated from healthy donor (HD) PBMCs using FITC-conjugated anti-Vδ2 TCR (2257030, Sony, San Jose, Calif.) in combination with anti-mouse IgG microbeads (Miltenyi Biotec, Bergisch Gladbach, Germany) and cultured weekly with irradiated feeder mix consisting of PBMCs from 2 HDs, JY cells, IL-7 (10 U/mL), IL-15 (10 ng/mL, R&D Systems) and phytohaemagglutinin (PHA; R30852801, Thermo Fisher Scientific).
# Purity of Vγ9Vδ2-T cell lines was maintained at >90%.
# VHH binding was tested as described in Example 6.
# After 48 hours, cells were analyzed by flow cytometry as described in Example 2.
# primary CLL cells = test: Venetoclax sensitivity and Bcl-xL expression of rmCD40L-stimulated primary CLL cells; format: cell-based, human; details: V19S76K-5C8 1000 nM before rmCD40L 48 h
molecule,measurement,setting,value
B1,Kd,Vγ9Vδ2+ cells,1.2 nM
same,sensitivity to venetoclax of rmCD40L-stimulated primary CLL cells,"primary CLL cells; then venetoclax 24 h, FIG. 9A",as sensitive to venetoclax as unstimulated CLL cells
same,Bcl-xL expression,primary CLL cells; FIG. 9B,returned to unstimulated levels
